According to patent publication US20250333517A1 (ROCK BIOMEDICAL, published 2025):

Legend:
[1] = target: T1, Vascular Endothelial Growth Factor (VEGF-A) (UniProt P15692-4 27-191, limits assumed); experiment: ELISA, target binding (FIG. 60)
T1 construct: also called the antigen (of Bevacizumab)

[2] = target: FcγRIIIA on the effector cells of the ADCC reporter assay (UniProt P08637 17-254, limits assumed); experiment: cell-based or functional assay
CD20 = target: T2, CD20 (UniProt P11836 1-297, limits assumed); experiment: ELISA, target binding (FIG. 57)
T2 construct: also called the antigen (of Rituximab and Obinutuzumab)
T2 sequence (looked up): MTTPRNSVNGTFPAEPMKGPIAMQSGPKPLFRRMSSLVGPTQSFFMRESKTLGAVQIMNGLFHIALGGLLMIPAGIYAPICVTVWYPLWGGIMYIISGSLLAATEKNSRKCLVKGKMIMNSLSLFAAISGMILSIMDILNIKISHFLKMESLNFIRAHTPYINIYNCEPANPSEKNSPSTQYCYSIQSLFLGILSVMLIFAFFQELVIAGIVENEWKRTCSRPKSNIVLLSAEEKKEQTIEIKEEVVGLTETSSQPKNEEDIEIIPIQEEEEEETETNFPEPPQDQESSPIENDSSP

Sequence of FcγRIIIA on the effector cells of the ADCC reporter assay (P08637 17-254 limits assumed): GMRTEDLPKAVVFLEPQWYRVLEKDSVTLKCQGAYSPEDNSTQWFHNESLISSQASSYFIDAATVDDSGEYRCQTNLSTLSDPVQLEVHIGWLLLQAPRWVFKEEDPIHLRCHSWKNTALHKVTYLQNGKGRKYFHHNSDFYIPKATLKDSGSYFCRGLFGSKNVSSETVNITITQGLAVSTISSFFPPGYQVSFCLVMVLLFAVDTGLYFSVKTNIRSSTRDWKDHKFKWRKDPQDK
T1 sequence (P15692 other isoform, or with tags, fused parts or gaps limits assumed): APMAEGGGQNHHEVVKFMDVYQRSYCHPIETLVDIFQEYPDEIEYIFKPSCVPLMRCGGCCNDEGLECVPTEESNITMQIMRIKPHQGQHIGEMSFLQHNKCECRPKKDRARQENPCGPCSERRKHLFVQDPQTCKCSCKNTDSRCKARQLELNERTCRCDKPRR

B1: Bevacizumab population of the present disclosure (Biobetter), produced by SAII A3 cells (antibody, V domains shown)
VH: EVQLVESGGGLVQPGGSLRLSCAASGYTFTNYGMNWVRQAPGKGLEWVGWINTYTGEPTYAADFKRRFTFSLDTSKSTAYLQMNSLRAEDTAVYYCAKYPHYYGSSHWYFDVWGQGTLVTVSS
VL: DIQMTQSPSSLSASVGDRVTITCSASQDISNYLNWYQQKPGKAPKVLIYFTSSLHSGVPSRFSGSGSGTDFTLTISSLQPEDFATYYCQQYSTVPWTFGQGTKVEIKR
modifications: N-glycan on the heavy chain: around 82.6% SCT glycans, mostly with core fucose
notes: also called glycoengineered Avastin protein population
B1 was tested. Which EC50 [1] did it give?
The EC50 was 0.377 nM.

B2: Rituximab population of the present disclosure (Biobetter), produced by SAII A3 Fut8 KO cells (antibody, human IgG1, kappa)
heavy: not shown
light: QIVLSQSPAILSASPGEKVTMTCRASSSVSYIHWFQQKPGSSPKPWIYATSNLASGVPVRFSGSGSGTSYSLTISRVEAEDAATYYCQQWTSNPPTFGGGTKLEIKRTVAAPSVFIFPPSDEQLKSGTASVVCLLNNFYPREAKVQWKVDNALQSGNSQESVTEQDSKDSTYSLSSTLTLSKADYEKHKVYACEVTHQGLSSPVTKSFNRGEC
modifications: N-glycan on the heavy chain: around 83.4% SCT glycans, no core fucose
notes: also called glycoengineered MabThera protein population
Which results are given for B2?
ADCC EC50 (M), ADCC Reporter Bioassay [2]: 1.76e-10 M; EC50 (CD20): 0.77 nM
